The test system of this assay is stress hormone receptor (glucocorticoid receptor). The assay can be described thus: Single-molecule-format bioluminescent probe response to stress hormone. The settings on record: with/without stress hormone. Type of assay: cell-based. As to the method:
In order to further examine the advantages of the highly-luminescent variants of the present invention, a single-molecule-format bioluminescent probe was synthesized based on this variant (FIG. 13). […] These probes were inserted into living cells, and the difference in the luminescence intensity was measured under conditions of presence and absence of […].
First, a stress hormone receptor recognizes the stress hormone, and causes an alteration in the structure. As a result, the receptor binds to the adjacent LXXLL motif, which thereby causes recombination of the fragments of the dissected luciferase. At this time, the activity of the stress hormone can be measured using the reversed enzyme activity as the index.
The sensitivity of SimGR3, 8990N, and Mon3N prepared for this experiment to the stress hormone was measured (FIG. 13B).

B1: SimGR3: control probe: original GLuc dissected into two fragments with GR LBD and LXXLL motif inserted (protein)
chain: MKPTENNEDFNIVAVASNFATTDLDADRGKLPGKKLPLEVLKEMEANARKAGCTRGCLICLSHIKCTPKMKKFIPGRCHTYEGDKESAQGGGGGTQLTPTLVSLLEVIEPEVLYAGYDSSVPDSTWRIMTTLNMLGGRQVIAAVKWAKAIPGFRNLHLDDQMTLLQYSWMFLMAFALGWRSYRQSSANLLCFAPDLIINEQRMTLPCMYDQCKHMLYVSSELHRLQVSYEEYLCMKTLLLLSSVPKDGLKSQELFDEIRMTYIKELGKAIVKREGNSSQNWQRFYQLTKLLDSMHEVVENLLNYCFQTFLDKTMSIEFPEMLAEIITNQIPKYSNGNIKKLLFHQKVDGGNGGRNALLRYLLDKDGSGGGGIGEAIVDIPEIPGFKDLEPMEQFIAQVDLCVDCTTGCLKGLANVQCSDLLKKWLPQRCATFASKIQGQVDKIKGAGGDKDEL
modifications: SimGR3; an integrated molecule-format probe carrying an LXXLL motif and GLuc.
notes: control probe: original GLuc dissected into two fragments with GR LBD and LXXLL motif inserted
As to B1, the “luminescence and stress hormone sensitivity with 610 nm long-pass filter” value was “not significant enough to distinguish between the presence and absence of stress hormone”.

These data come from US20120034672A1, “[…] LUCIFERASE VARIANT WITH PROLONGED BIOLUMINESCENCE” (priority 2009, published 2012).
